Tests used:
[1] = parameters: species or system Sprague-Dawley rats; conditions: rat, in vivo
Experimental: We eluted the peptides with a 50 mM NaHCO3 solution and collected the eluted fractions containing the peptides. […] After adding 15 μL of trimethylamine to the Cy7-ester and peptide solution, we gently stirred the mixed solution overnight in the dark at room temperature. We desalted the resulting solution (1.94 mL) using a PD-10 column, eluted it with PBS (pH 7.4) with 0.001% methyl cellulose, and then adjusted its pH to 6.0. We obtained 4.0–6.0 mL of eluted solution and quantified the peptides by BCA assay or HPLC. We used the same analytical conditions for HPLC as previously described. […] We fed male Sprague-Dawley rats (seven weeks old) a nonfluorescent rodent diet (D10001) for a week before intranasal administration to avoid the intrinsic fluorescence of tissues. […] We performed the surgical procedure described by Hirai et al. to close the nasal cavity. Briefly, we incised the neck and cannulated the trachea and esophagus with polyethylene tubing (Hibiki No. 6) to maintain respiration and keep the solutions in the nasal cavity, respectively. We sealed the nasopalatine ducts with medical super glue (Aron Alpha A Sankyo, Daiichi-Sankyo Co., Ltd., Tokyo, Japan) to prevent the drainage of the solutions from the nasal cavity into the oral cavity. […] At the designated time points after administration (15, 30, and 60 or 120 min), we quickly exsanguinated the rats from the postcaval vein and flushed the administered solution by perfusion of PBS (pH 7.4). We decapitated the rats, carefully isolated the whole brain and right and left trigeminal nerves, and washed them with ice-cold PBS (pH 7.4). We placed the brain samples onto a brain matrix (MK-RC-01, Muromachi Kikai Co., Ltd., Tokyo, Japan) and sliced with blades (TCB-100) into twelve 2 mm-thick fractions. We placed the sliced brain and trigeminal nerve samples on a silicon board and mounted them on the stage of an in vivo imaging system (IVIS Lumina XR, Caliper Life sciences, Inc., Waltham, MA, USA). […] We quantified the fluorescence intensity of the region of interest of the images based on their contrast. To calculate the fluorescence intensity derived from Cy7 in the tissues, we subtracted the intrinsic fluorescence of an untreated area from the total intensity.

[2] = in vivo; cited from earlier work
Description: During the permeation through the nasal mucosa, drugs come across microvascular vessels in the lamina propria directed toward the systemic circulation before reaching the brain or cerebrospinal fluid (CSF).

Cy7-Exendin-4: Exendin-4 labeled with the Cy7 fluorescent dye via Cy7 Mono NHS Ester
distribution in the trigeminal nerves [1]: high even without L-penetratin | distribution ratio (olfactory bulb/trigeminal nerves) [1]: dominantly increased

Cy7-insulin: insulin labeled with the Cy7 fluorescent dye via Cy7 Mono NHS Ester
distribution in the trigeminal nerves [1]: high even without L-penetratin | distribution ratio (olfactory bulb/trigeminal nerves) [1]: dominantly increased

leptin
delivery to the brain by intranasal coadministration with L-penetratin [2]: significantly increased

Source: publication PMC8618983, “Investigation of the Transport Pathways Associated with Enhanced Brain Delivery of Peptide Drugs by Intranasal Coadministration with Penetratin” (Pharmaceutics, 2021)
